According to paper PMC4977486, “A/T Run Geometry of B-form DNA Is Independent of Bound Methyl-CpG Binding Domain, Cytosine Methylation and Flanking Sequence”:

What was measured:
[1] = target: MeCP2 MBD wild type (UniProt P51608 78-163); test: EMSA; 2, 4, 8 uM protein; 1.8 uM DNA; 1.8 uM poly(dG-dC) competitor; reference; EMSA: 100 mM Tris-HCl pH 7.5, 500 mM KCl, 10 mM DTT, 1.8 uM poly(dG-dC), room temperature 30 min; 8% native PAGE in Tris-glycine pH 8.3 at 277 K; details: protein: recombinant; 5' overhang 1 nt on each strand (T and A), 19 bp
[2] = target: MeCP2 MBD-TRD wild type (UniProt P51608 78-310); test: as above; details: protein: recombinant; 5' overhang 1 nt on each strand (T and A), 19 bp

B1: methylated BDNFProIII 20-mer (dsDNA)
DNA 1: TCTGGAACGGAATTCTTCTA
DNA 2: ATAGAAGAATTCCGTTCCAG
modifications: 5-methylcytosine at position 8 of strand 1 and position 13 of strand 2 (C33 in duplex numbering)
- binding signal [1]: 100 % of wild-type MBD complex
- binding signal [2]: 100 % of wild-type MBD-TRD complex
